Experimental data as given in PMC2172602.

Biological target: αL-YFP/β2 (LFA-1 with dimerizing YFP on αL) on K562 cells (UniProt P20701)
Test: FRET or BRET

UniProt P20701, sequence (P20701 whole entry, looked up): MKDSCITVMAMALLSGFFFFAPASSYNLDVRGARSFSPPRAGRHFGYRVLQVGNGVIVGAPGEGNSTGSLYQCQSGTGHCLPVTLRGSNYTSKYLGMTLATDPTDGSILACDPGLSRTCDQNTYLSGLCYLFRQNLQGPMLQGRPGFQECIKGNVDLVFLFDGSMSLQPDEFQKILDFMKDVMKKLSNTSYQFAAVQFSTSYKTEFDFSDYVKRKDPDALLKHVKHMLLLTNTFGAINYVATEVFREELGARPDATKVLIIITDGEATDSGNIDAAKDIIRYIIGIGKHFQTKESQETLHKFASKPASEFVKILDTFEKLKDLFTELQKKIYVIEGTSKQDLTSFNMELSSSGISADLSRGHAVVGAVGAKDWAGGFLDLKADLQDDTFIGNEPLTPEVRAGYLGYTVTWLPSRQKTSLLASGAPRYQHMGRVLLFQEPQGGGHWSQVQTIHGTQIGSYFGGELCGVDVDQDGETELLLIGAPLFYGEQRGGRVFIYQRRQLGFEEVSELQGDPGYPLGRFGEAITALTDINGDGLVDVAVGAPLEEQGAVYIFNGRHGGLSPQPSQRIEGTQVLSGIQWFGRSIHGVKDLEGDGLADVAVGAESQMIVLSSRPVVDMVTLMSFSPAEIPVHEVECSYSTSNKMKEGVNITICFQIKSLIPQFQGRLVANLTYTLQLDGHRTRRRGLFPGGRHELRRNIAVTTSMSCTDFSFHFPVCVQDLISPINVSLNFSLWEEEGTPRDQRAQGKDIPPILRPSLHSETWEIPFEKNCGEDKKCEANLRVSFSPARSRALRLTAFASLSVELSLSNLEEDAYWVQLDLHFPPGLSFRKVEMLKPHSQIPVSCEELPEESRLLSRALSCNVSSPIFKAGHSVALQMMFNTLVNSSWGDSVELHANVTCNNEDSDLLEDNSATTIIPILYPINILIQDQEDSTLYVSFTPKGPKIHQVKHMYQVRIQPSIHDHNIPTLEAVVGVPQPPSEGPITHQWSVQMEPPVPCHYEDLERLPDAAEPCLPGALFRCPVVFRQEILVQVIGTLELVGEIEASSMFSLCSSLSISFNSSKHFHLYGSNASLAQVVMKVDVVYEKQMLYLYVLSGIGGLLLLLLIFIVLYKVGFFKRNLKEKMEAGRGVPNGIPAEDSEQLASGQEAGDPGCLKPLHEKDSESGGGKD

αL-CFP/β2 (LFA-1 with dimerizing CFP on αL) on K562 cells (from UniProt P20701 26-1170; P05107 23-769) (receptor)
K (analogous to the dissociation constant of microclusters): 532
